Laboratory results taken from article PMC8514943, “^68Ga-Labeled GX1 Dimer: A Novel Probe for PET/Cerenkov Imaging Targeting Gastric Cancer” (Frontiers in Oncology, 2021).
Read-outs that look alike come from different tables or passages of the source. Positions of bridges follow the written chain, without caps; N, C: chain ends. Residues, ends and D or L forms follow the SMILES beside them. *: point of attachment. DOTA = O=C(O)CN1CCN(CC(=O)O)CCN(CC(=O)*)CCN(CC(=O)O)CC1

Columns and labels:
[1] = 37°C, determined at 0, 30, 60, 90 min, value holds for 90 min, radioactive TLC
Method: We used four kinds of solutions to observe the stability of the probes, namely, raw solution, normal saline, fresh mouse serum, and human serum. The specific methods were as follows: the probe and each solution were mixed according to a volume ratio of 1:100, and the original solution was kept as a control. The radiochemical purity of the solution was determined at 0, 30, 60, and 90 min. A curve was drawn to observe the stability of the probe in vitro and to speculate whether the probe would be removed from the standard in vivo.
Four kinds of solutions were used to observe the stability of the probe, namely, raw solution, normal saline, fresh mouse serum, and human serum. The probe was mixed with each solution at a volume ratio of 1:100, and the original solution was retained as a control. The radiochemical purity of the solution was determined after incubation for 0, 30, 60, and 90 min at 37°C.

BGC-823 tumors = experiment: Biodistribution in tumor-bearing nude mice; assay type: in vivo, nude BALB/c mice
Method: All of the experiments were performed according to a protocol approved by the Fourth Military Medical University (FMMU) Animal Care and Use Committee. A total of 0.2 ml of cell suspension (BGC823, 2 × 10^6 cells) was implanted by subcutaneous injection into the right upper limb of athymic female nude BALB/c mice (age, 4–6 weeks; weight, 15–20 g). When the diameter of the tumor reached approximately 8 mm, it could be used for imaging. […] For the biodistribution of the probes, 3.7 × 10^6 Bq of probe was injected intravenously. […] The percentage of injected dose per gram (%ID/g) was calculated. […] The %ID/g was calculated as described previously.

Compound: NCCCC[C@H](NC(=O)[C@H](CCC(=O)O)NC(=O)[C@H](CCCCN)NC(=O)[C@@H]1CSSC[C@H](NC(=O)CN2CCN(CC(=O)O)CCN(CC(=O)O)CCN(CC(=O)O)CC2)C(=O)NCC(=O)N[C@@H](CC(N)=O)C(=O)N[C@@H](CO)C(=O)N[C@@H](CC(N)=O)C(=O)N2CCC[C@H]2C(=O)N[C@@H](CCCCN)C(=O)N[C@@H](CO)C(=O)N1)C(=O)N[C@H]1CSSC[C@@H](C(=O)O)NC(=O)[C@H](CO)NC(=O)[C@H](CCCCN)NC(=O)[C@@H]2CCCN2C(=O)[C@H](CC(N)=O)NC(=O)[C@H](CO)NC(=O)[C@H](CC(N)=O)NC(=O)CNC1=O [^68Ga-DOTA-KEK-(GX1)2, metal not drawn] ({DOTA}-CGNSNPKSCKEKCGNSNPKSC-OH; disulfide 1-9, 13-21)
- labeling rate (radiochemical purity) remaining ([1]; fresh mouse serum, probe:solution 1:100 v/v): above 95%
- labeling rate (radiochemical purity) remaining ([1]; human serum, probe:solution 1:100 v/v): above 95%
- labeling rate (radiochemical purity) remaining ([1]; normal saline, probe:solution 1:100 v/v): above 95%
- labeling rate (radiochemical purity) remaining ([1]; raw (original) solution kept as control): above 95%
- radiation of the tumor over time (BGC-823 tumors; 3.7 × 10^6 Bq i.v., 30, 60, 90 min, while kidney and liver radioactivity reduced rapidly): decreased relatively slowly
- %ID/g of the tumor compared with organs (BGC-823 tumors; 3.7 × 10^6 Bq i.v., 60 min, except for the liver and kidney): higher than that of other normal organs
- uptake by tumors compared between probes (%ID/g) (BGC-823 tumors; 3.7 × 10^6 Bq i.v., 60 min postinjection): much higher than that of ^68Ga-DOTA-GX1
- T/NT ratios (BGC-823 tumors; tumor/nontumor ratios, 30, 60, 90 min after injection): increased over time
